The data set has as its target interferon-gamma (IFNγ) (human, UniProt P01579 24-161). The data set is described as follows: SPR; method inferred; no citation given with the value; SPR (BIAcore T200, biotinylated aptamer on SA chip), 1x PBS (1 mM KH2PO4, 3 mM Na2HPO4) with 205 mM NaCl final, 0.05% NP-40, pH 7.4, 25 °C; IFNγ 1.25-50 nM. To be noted: protein: recombinant; chain copies: 2. (In general: SPR reads the build-up and loss of mass on a sensor chip optically.)

For orientation: Kd means the equilibrium constant for the complex coming apart.

interferon-gamma (IFNγ), sequence (P01579 24-161): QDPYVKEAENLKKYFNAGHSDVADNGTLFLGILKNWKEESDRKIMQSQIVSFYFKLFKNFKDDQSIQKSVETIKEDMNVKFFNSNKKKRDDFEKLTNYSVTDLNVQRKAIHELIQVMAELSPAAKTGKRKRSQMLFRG

For the molecule TCCACTCGGGTCATTTAATAATGTAGGTATGGGCTAGGCAGCTAGTGGA (structured_DNA) [aptamer 49A], the Kd came to 7.2 nM.

Source of the values: publication PMC4686876, “Architecture of high-affinity unnatural-base DNA aptamers toward pharmaceutical applications”.
